Laboratory results from patent publication US20210238252A1.

Target: Fc receptor CD16 (UniProt P08637)
Experiment: cell-based or functional assay

Sequence of Fc receptor CD16 (P08637 17-254 limits assumed): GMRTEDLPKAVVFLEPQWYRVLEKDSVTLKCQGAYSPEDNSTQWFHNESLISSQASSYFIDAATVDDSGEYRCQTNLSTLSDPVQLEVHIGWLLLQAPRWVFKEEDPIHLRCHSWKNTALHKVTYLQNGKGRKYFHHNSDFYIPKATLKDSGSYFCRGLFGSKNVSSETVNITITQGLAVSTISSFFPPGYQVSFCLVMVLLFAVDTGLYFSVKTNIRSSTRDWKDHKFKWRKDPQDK

Q: Which IC50, ADCC: killing of BaL-infected CEM.NKR.CCR5+ Luc cells by KHYG-1 CD16+ NK cells does the source give for IgGb12 (antibody) here?
A: 0.0662 µg/mL
